# Assay results taken from paper PMC5286426, “The Calcium-Dependent Switch Helix of L-Plastin Regulates Actin Bundling” (Scientific Reports, 2017).
# Entries after “also recorded” stand apart in the source; their conditions may differ.
# B1: ABD1: actin-binding domain 1 of LPL (residues 113–379) (protein, UniProt P13796 113-379, looked up, fragment)
# chain: GTQHSYSEEEKYAFVNWINKALENDPDCRHVIPMNPNTNDLFNAVGDGIVLCKMINLSVPDTIDERTINKKKLTPFTIQENLNLALNSASAIGCHVVNIGAEDLKEGKPYLVLGLLWQVIKIGLFADIELSRNEALIALLREGESLEDLMKLSPEELLLRWANYHLENAGCNKIGNFSTDIKDSKAYYHLLEQVAPKGDEEGVPAVVIDMSGLREKDDIQRAECMLQQAERLGCRQFVTATDVVRGNPKLNLAFIANLFNRYPALHK
# modifications: actin-binding domain 1
# B2: T-plastin: plastin isoform from solid tissues, such as fibroblasts and epithelial cells (protein, UniProt P13797 1-630, looked up)
# Plastin-3: MDEMATTQISKDELDELKEAFAKVDLNSNGFICDYELHELFKEANMPLPGYKVREIIQKLMLDGDRNKDGKISFDEFVYIFQEVKSSDIAKTFRKAINRKEGICALGGTSELSSEGTQHSYSEEEKYAFVNWINKALENDPDCRHVIPMNPNTDDLFKAVGDGIVLCKMINLSVPDTIDERAINKKKLTPFIIQENLNLALNSASAIGCHVVNIGAEDLRAGKPHLVLGLLWQIIKIGLFADIELSRNEALAALLRDGETLEELMKLSPEELLLRWANFHLENSGWQKINNFSADIKDSKAYFHLLNQIAPKGQKEGEPRIDINMSGFNETDDLKRAESMLQQADKLGCRQFVTPADVVSGNPKLNLAFVANLFNKYPALTKPENQDIDWTLLEGETREERTFRNWMNSLGVNPHVNHLYADLQDALVILQLYERIKVPVDWSKVNKPPYPKLGANMKKLENCNYAVELGKHPAKFSLVGIGGQDLNDGNQTLTLALVWQLMRRYTLNVLEDLGDGQKANDDIIVNWVNRTLSEAGKSTSIQSFKDKTISSSLAVVDLIDAIQPGCINYDLVKSGNLTEDDKHNNAKYAVSMARRIGARVYALPEDLVEVKPKMVMTVFACLMGRGMKRV
# B3: S5E mutant: LPL S5E mutant of Janji and coworkers (protein, UniProt P13796 2-627, looked up, variant S5E)
# Plastin-2: ARGEVSDEEMMELREAFAKVDTDGNGYISFNELNDLFKAACLPLPGYRVREITENLMATGDLDQDGRISFDEFIKIFHGLKSTDVAKTFRKAINKKEGICAIGGTSEQSSVGTQHSYSEEEKYAFVNWINKALENDPDCRHVIPMNPNTNDLFNAVGDGIVLCKMINLSVPDTIDERTINKKKLTPFTIQENLNLALNSASAIGCHVVNIGAEDLKEGKPYLVLGLLWQVIKIGLFADIELSRNEALIALLREGESLEDLMKLSPEELLLRWANYHLENAGCNKIGNFSTDIKDSKAYYHLLEQVAPKGDEEGVPAVVIDMSGLREKDDIQRAECMLQQAERLGCRQFVTATDVVRGNPKLNLAFIANLFNRYPALHKPENQDIDWGALEGETREERTFRNWMNSLGVNPRVNHLYSDLSDALVIFQLYEKIKVPVDWNRVNKPPYPKLGGNMKKLENCNYAVELGKNQAKFSLVGIGGQDLNEGNRTLTLALIWQLMRRYTLNILEEIGGGQKVNDDIIVNWVNETLREAKKSSSISSFKDPKISTSLPVLDLIDAIQPGSINYDLLKTENLNDDEKLNNAKYAISMARKIGARVYALPEDLVEVNPKMVMTVFACLMGKGMKRV
# B4: LPL: 70 kDa Ca^2+- and actin-binding protein, full-length human L-plastin (protein)
# chain: MARGSVSDEEMMELREAFAKVDTDGNGYISFNELNDLFKAACLPLPGYRVREITENLMATGDLDQDGRISFDEFIKIFHGLKSTDVAKTFRKAINKKEGICAIGGTSEQSSVGTQHSYSEEEKYAFVNWINKALENDPDCRHVIPMNPNTNDLFNAVGDGIVLCKMINLSVPDTIDERTINKKKLTPFTIQENLNLALNSASAIGCHVVNIGAEDLKEGKPYLVLGLLWQVIKIGLFADIELSRNEALIALLREGESLEDLMKLSPEELLLRWANYHLENAGCNKIGNFSTDIKDSKAYYHLLEQVAPKGDEEGVPAVVIDMSGLREKDDIQRAECMLQQAERLGCRQFVTATDVVRGNPKLNLAFIANLFNRYPALHKPENQDIDWGALEGETREERTFRNWMNSLGVNPRVNHLYSDLSDALVIFQLYEKIKVPVDWNRVNKPPYPKLGGNMKKLENCNYAVELGKNQAKFSLVGIGGQDLNEGNRTLTLALIWQLMRRYTLNILEEIGGGQKVNDDIIVNWVNETLREAKKSSSISSFKDPKISTSLPVLDLIDAIQPGSINYDLLKTENLNDDEKLNNAKYAISMARKIGARVYALPEDLVEVNPKMVMTVFACLMGKGMKRV
# modifications: left off: GST, end not stated, cleaved
# Assays:
# actin [1] = settings: in vitro; cited from earlier work
# Description: LPL is comprised of two N-terminal EF-hand motifs (head-piece domain), which are homologous to a single domain of calmodulin (CaM) (34.7% identical), followed by two actin-binding domains (ABDs)[5]. Each ABD consists of two independently folded calponin homology (CH) domains. While many signaling and cytoskeletal proteins share these CH domains, plastins are the only known proteins to have two tandem ABDs[31][32][33]. The four CH domains are each folded into a compact globular shape where the ABD1 and ABD2 are arranged back-to-back[34][35]. Each ABD can bind an actin-filament, thereby LPL ... || In order to further investigate the role of H5 in the Ca^2+-dependent actin-bundling of LPL, we have performed actin-bundling assays with a series of different LPL constructs (Fig. 4).
# [2] = cited from earlier work
# Description: L-plastin (LPL) is a 70 kDa Ca^2+- and actin-binding protein that plays an important role in both the adaptive and innate immune system. Among the three isoforms found in humans (L-, T-, and I-plastin), LPL is exclusively expressed in cells of hematopoietic origin, where it can act as an actin cross-linker by promoting actin bundling. The actin-bundling activity of LPL is known to be calcium-dependent, where increasing calcium concentrations inhibit the formation of actin-bundles[9][10].
# actin [3] = settings: compared to the non-phosphorylated LPL protein; cited from earlier work
# Description: In addition to the Ca^2+ switch, the targeting of LPL to the actin cytoskeleton is also regulated by the phosphorylation of Ser5[41]. Among all three human plastin isoforms, LPL is the only isoform that is currently known to be phosporylated in vivo[40]. Unlike other actin-binding proteins, where phosphorylation usually occurs in the actin-binding domain, LPL phosphorylation seems to take place on the regulatory Ca^2+-binding domain. […] They hypothesized ...
# CaM = settings: CaM-pull down; cited from earlier work
# Description: The H5 region of LPL was previously predicted as a potential binding site for CaM[48]. Indeed this sequence produced a high theoretically predicted score for CaM binding. […] Therefore, we have tested the interaction between EF-H5 and CaM in the presence of EDTA. However, ...
# [4] = tested on: Human platelet actin (F-actin); assay: Actin-bundling assay, low-speed centrifugation and SDS-PAGE; type: biochemical; settings: 6 µM F-actin, n = 3 (Fig. 4a); for Amount of actin found in the pellet: 3 µM LPL construct, pH 7.5, room temperature, 1 h; for Amount of LPL found in the pellet: 3 µM LPL
# Method: Human platelet actin (Cytoskeleton) was dissolved in 2 mM Tris pH7.5, 0.2 mM CaCl2, 0.2 mM ATP, and 0.5 mM DTT (Buffer G). The actin was then polymerized overnight at 4 °C in 20 mM Tris pH 7.5, 100 mM KCl, and 1 mM MgCl2. Spontaneously bundled F-actin was removed by centrifugation at 12,000 g for 15 min prior to the assay. F-actin and LPL constructs were incubated at room temperature for 1 h in 50 uL of the buffer containing 20 mM Tris pH7.5, 100 mM KCl, 1 mM MgCl2, 6 µM F-actin, 3 µM LPL construct, 0.1 mM CaCl2, 0.1 mM ATP with and without 5 mM EGTA. LPL induced actin bundles were sedimented by centrifugation at 12,000 g for 15 min and the supernatant was carefully removed. The amount of actin and/or LPL construct in the pellet was analyzed by SDS-PAGE. The effect of the presence of 12 µM melittin peptide on actin-bundling was also examined.
molecule,measurement,setting,value
B1,Actin binding of ABD1 relative to ABD2,actin [1],an order of magnitude stronger than ABD2; also recorded: ten times stronger than ABD2
B2,Sensitivity to intracellular Ca^2+-signals,[2],relatively insensitive
B3,Actin bundling activity,actin [3],increased actin bundling activity
B4,Direct binding to CaM,CaM,only seen in the absence of Ca^2+
same,Amount of actin found in the pellet,[4]; in the presence of Ca^2+ (0.1 mM CaCl2),~ 50%
same,Amount of actin found in the pellet,"[4]; in the presence of EGTA, 5 mM EGTA",~ 90%
same,Amount of LPL found in the pellet,[4]; with Ca^2+,~ 50%
same,Amount of LPL found in the pellet,[4]; with EGTA,~ 70%
same,Sensitivity to intracellular Ca^2+-signals,[2],optimal Ca^2+-binding affinity to respond to intracellular Ca^2+-signals
